± gives the uncertainty stated by the source.
Assay: protein stability index of a GFP-peptide fusion (yeast GPS) (PSI 1-4); higher = more stable; sorted into four equal gates, so the index is relative within each strain
Procedure, shortened: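 The protein stability index of a peptide was calculated by multiplying its read frequency in each gate by that gate's number and adding the products. The peptides were tiled 17-residue stretches of yeast proteins, fused downstream of GFP on a Cherry-expressing plasmid and carried in yeast as a pooled library. Mid-log cultures in leucine-free medium were sorted into four equal gates by GFP/Cherry ratio, and each gate's plasmids were PCR-amplified and Illumina-sequenced.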

Sequence	protein stability index (doa10∆)	protein stability index (pdr5∆)	protein stability index (san1∆)	protein stability index (ubr1∆)
NFNPDNGFAPISEVMED [FAS1]	3.3 ± 0.085	3.06 ± 0.042	3.2 ± 0.044	3.17 ± 0.033
MPNDNKTPNRSSTPKFT [SIR4]	2.66 ± 0.1	2.55 ± 0.19	3 ± 0.062	3.09 ± 0.086
MAREHAPSIIFMDEIDS [RPT6]	2.14 ± 0.073	2.11 ± 0.077	2.54 ± 0.099	2.42 ± 0.059
MANDLVQARDNSQVFGV [RPS14B]	2.39 ± 0.076	2.36 ± 0.061	2.81 ± 0.049	2.97 ± 0.063
IGQFLEPIDQNTGIVSS [RPT3]	2.48 ± 0.2	2.82 ± 0.11	2.14 ± 0.17	2.85 ± 0.066
ELGISLEHPYGKEVEVL [SNU114]	2.29 ± 0.082	2.34 ± 0.086	2.17 ± 0.094	2.14 ± 0.056
MTVAHLIECLLSKVAAL [RPB2]	1.97 ± 0.084	2.01 ± 0.074	1.84 ± 0.1	1.54 ± 0.054
GSGVDSSKLQLTKKYSF [RRP42]	2.67 ± 0.12	2.8 ± 0.062	1.55 ± 0.12	2.83 ± 0.071
FGWLLSDNSVSVRLQVT [IRR1]	1.26 ± 0.078	1.32 ± 0.095	1.19 ± 0.23	1.13 ± 0.13
ETFISSMTATADVLAMA [RIP1]	1.93 ± 0.11	2.48 ± 0.097	3.13 ± 0.077	1.44 ± 0.054
ISIDSWPTTHKYPLGHF [DIS3]	2.38 ± 0.077	2.74 ± 0.11	3.04 ± 0.082	2.81 ± 0.072
KTAMAELALLNHWRQNK [BRR2]	1.39 ± 0.082	1.79 ± 0.12	1.26 ± 0.17	1.88 ± 0.062
LPYAIAGSGSTFIYGYC [PRE3]	2.13 ± 0.14	1.42 ± 0.084	2.26 ± 0.12	2.29 ± 0.085
ETENSESIASSNTYKEE [MCD1]	–	2.55 ± 0.29	–	2.89 ± 0.074
DIDGIMDNPRKLSKILR [SNU114]	3.01 ± 0.074	2.96 ± 0.084	2.94 ± 0.058	2.96 ± 0.067
WQELARSTDEFNGAQLK [RPT5]	2.52 ± 0.16	2.73 ± 0.2	2.65 ± 0.24	2.29 ± 0.17
LEDLVFPTEIVGKRVRY [RPS7A]	–	3.52 ± 0.28	–	3.71 ± 0.25
VDGEAVGDEFKGYVFKI [RPS6A]	–	3.79 ± 0.18	–	–
GKTSFFQALGVPTKIAR [RPP0]	3.24 ± 0.1	3.29 ± 0.091	2.98 ± 0.11	3.26 ± 0.071
KSEEVKAEDDTGEEEED [RPC37]	–	–	–	2.95 ± 0.19
TGITKKDEDEEADEDMK [PRE9]	3.09 ± 0.057	3.3 ± 0.074	3.06 ± 0.064	3.07 ± 0.061
ASVVPSASSLVITALKE [RPL12A]	2.09 ± 0.044	2.3 ± 0.051	2.12 ± 0.071	1.96 ± 0.045
VPLAMGIVSVSDPQMKV [RPN1]	1.39 ± 0.041	1.63 ± 0.054	1.43 ± 0.1	1.51 ± 0.051
VLCLTRSSYMLELVNTP [YCG1]	1.58 ± 0.059	2.03 ± 0.2	1.77 ± 0.099	1.98 ± 0.087
VKKGPVRLPTKVLKIST [RPS20]	2.22 ± 0.062	2.22 ± 0.085	2.54 ± 0.058	2.37 ± 0.064
SQVVETHKVTDIYSHEY [YMR129W/POM152]	2.75 ± 0.083	2.77 ± 0.089	2.68 ± 0.073	2.83 ± 0.15
DEIHIPAPSKPVIDYEL [BRR2]	3.19 ± 0.073	3.08 ± 0.077	2.88 ± 0.059	2.78 ± 0.061
SASFSLKNGDKPHLLKF [RPL6B]	2.4 ± 0.16	2.42 ± 0.23	3.25 ± 0.14	3.42 ± 0.16

Sequence	protein stability index (doa10∆)	protein stability index (pdr5∆)	protein stability index (san1∆)	protein stability index (ubr1∆)
GTQMTLKTFHFAGVASM [RPO31]	1.63 ± 0.11	1.85 ± 0.088	1.68 ± 0.13	2.1 ± 0.12
HGIKDIPIGHVHVIHFQ [AAR2]	2.89 ± 0.06	2.86 ± 0.058	2.87 ± 0.059	2.75 ± 0.041
PRQTKKAKAQAQAQAQA [PGD1]	3.2 ± 0.077	3.46 ± 0.056	3.22 ± 0.036	3.06 ± 0.059
LNGREVKAILMQRHVKV [RPS4A]	1.23 ± 0.081	1.25 ± 0.063	1.39 ± 0.21	1.24 ± 0.051
LIPDGRHLVNRGREEAA [PRE10]	–	1.41 ± 0.28	–	–
FKYLLGVTDLFRHFIGI [ISW2]	2.17 ± 0.056	1.35 ± 0.048	1.25 ± 0.12	1.3 ± 0.071
ERKKQSDVLRFLQRVRV [RPL15B]	2.08 ± 0.06	2.43 ± 0.062	2.04 ± 0.066	2.12 ± 0.043
EPPLSYEQHIENIEPLD [PRP8]	2.44 ± 0.087	2.97 ± 0.097	2.32 ± 0.12	3.03 ± 0.27
SAKTRSHNWAAKAKRRH [RPL37B]	3.42 ± 0.093	3.32 ± 0.071	3.31 ± 0.059	3.41 ± 0.042
VQSQVDSSSVSEDSAVF [FAS1]	3.11 ± 0.072	3.33 ± 0.08	3.12 ± 0.047	3.29 ± 0.049
DVEVDDDFTNELKAELD [SEM1]	3.25 ± 0.13	3.55 ± 0.11	3.54 ± 0.085	3.36 ± 0.056
DQCKKQRRCLHCGALNG [RPO31]	2.6 ± 0.14	2.71 ± 0.18	2.4 ± 0.11	2.57 ± 0.11
MRILPRETDPLVYNMTS [RPT4]	3.07 ± 0.078	2.85 ± 0.065	3.18 ± 0.06	2.73 ± 0.057
DHYESNQLVAKLLLLRI [SRB8]	2.84 ± 0.065	2.74 ± 0.085	2.84 ± 0.1	2.34 ± 0.038
DPPKGILLYGPPGTGKT [RPT1]	2.94 ± 0.28	2.71 ± 0.28	–	3.23 ± 0.17
STKLSRPFDSFGKLLQA [ITC1]	2.42 ± 0.054	2.67 ± 0.066	2.35 ± 0.057	2.03 ± 0.063
LADKLENYEGKQDKTLQ [YIL149C/MLP2]	3.15 ± 0.18	3.22 ± 0.22	2.92 ± 0.15	3.17 ± 0.22
SLDRVAWRTLVGVSHTN [CYT1]	1.3 ± 0.053	1.31 ± 0.048	1.34 ± 0.11	1.25 ± 0.043
KVIKVLGRTGSRGGVTQ [RPS28A]	3.02 ± 0.073	3.04 ± 0.058	2.73 ± 0.085	3.12 ± 0.083
ESITYQKIMILQRTILN [RGR1]	1.61 ± 0.069	1.69 ± 0.06	1.49 ± 0.099	2.06 ± 0.065
AAPAAAAAEIADEPVKA [FAS2]	2.55 ± 0.063	2.74 ± 0.067	2.56 ± 0.078	2.53 ± 0.045
RLIVDPNIADYITAKNN [PRP8]	2.15 ± 0.076	2.22 ± 0.066	2.36 ± 0.26	2.08 ± 0.052
KNKDSLVSNPHEIYGSM [SRB4]	3.04 ± 0.084	3.09 ± 0.09	2.96 ± 0.07	3.26 ± 0.14
KKIENTMLENITLRGVE [RPO21]	3.38 ± 0.12	2.79 ± 0.12	2.98 ± 0.07	3.09 ± 0.077
NTKEIAVDLEHHDYRSY [RRP6]	2.93 ± 0.06	3.07 ± 0.048	3.15 ± 0.056	3.054 ± 0.03
LIENCKQVLDVDPVYKD [FAS2]	3.14 ± 0.17	3.21 ± 0.12	3.33 ± 0.076	3.37 ± 0.068
DYVNKTNSHLPAGKQVE [FAS1]	3.16 ± 0.098	3.57 ± 0.24	3.08 ± 0.13	3.08 ± 0.11

— the supplement of paper PMC9732359
